Laboratory results taken from the RNAGym collection of RNA variant scans (doi:10.7554/elife.80360).

B1: Hairpin Ribozyme (parent)
chain: GUCCUCUUUCACGUGCGCGUGAAAGAGAGAAGUGAACCAGAGAAACACACGUUGUGGUAUAUUACCUGGUA

Variants of: B1
Assay: self-cleavage, relative activity (ratio to wild type); higher = more cleavage; co-transcriptional

Row | Variant | self-cleavage
1 | GUCCUCUUUCACGUGCGCGUGAAUGAGAGAAGUGAACCAGAGAAACACACGUCGUGGUAUAUUACCUGGUA | 0.885
2 | GUCCUCUUUCACGUGCGCGUGAAUGAGAGAAGUGAACCAGAGAAACACACGUAGUGGUAUAUUACCUGGUA | 1.03
3 | GUCCUCUUUCACGUGCGCGUGAAAAAGAGAAGUGAACCAGAGAUACACACGUUGUGGUAUAUUACCUGGUA | 0.179
4 | GUCCUCUUUCACGUGCGCGUGAAUGAGAGAAGUGAACCAGAGAAACCCACGUUGUGGUAUAUUACCUGGUA | 0.3
5 | GUCCUCUUUCACGUGCGCGUGAAUGAGAGAAGUGAACCAGAGAAACGCACGUUGUGGUAUAUUACCUGGUA | 0.164
6 | GUCCUCUUUCACGUGCGCGUGAAUGCGAGAAGUGAACCAGAGAAACACACGUUGUGGUAUAUUACCUGGUA | 0.575
7 | GUCCUCUUUCACGUGCGCGUGAAUGGGAGAAGUGAACCAGAGAAACACACGUUGUGGUAUAUUACCUGGUA | 0.79
8 | GUCCUCUUUCACGUGCGCGUGAAUGUGAGAAGUGAACCAGAGAAACACACGUUGUGGUAUAUUACCUGGUA | 0.443
9 | GUCCUCUUUCACGUGCGCGUGAAUGAGAGAAGUGAACCAGAGAAACACUCGUUGUGGUAUAUUACCUGGUA | 0.216
10 | GUCCUCUUUCACGUGCGCGUGAAUGAGAGAAGUGAACCAGAGAAACACCCGUUGUGGUAUAUUACCUGGUA | 0.104
11 | GUCCUCUUUCACGUGCGCGUGAAAAAGAGAAGUGCACCAGAGAAACACACGUUGUGGUAUAUUACCUGGUA | 0.738
12 | GUCCUCUUUCACGUGCGCGUGAAAAAGAGACGUGAACCAGAGAAACACACGUUGUGGUAUAUUACCUGGUA | 0.128
13 | GUCCUCUUUCACGUGCGCGUGAAGGAGAGAAGUGAACCAGAGAAACACACGUUCUGGUAUAUUACCUGGUA | 0.458
14 | GUCCUCUUUCACGUGCGCGUGAAAAAGAGAAGUGAACCAGAGAAACACUCGUUGUGGUAUAUUACCUGGUA | 0.209
15 | GUCCUCUUUCACGUGCGCGUGAAUGAGAGAAUUGAACCAGAGAAACACACGUUGUGGUAUAUUACCUGGUA | 0.128
16 | GUCCUCUUUCACGUGCGCGUGAAGGAGAGAAGUGAACCAGAGAAACACACGUUGUGGUAUAUUACCUUGUA | 0.273
17 | GUCCUCUUUCACGUGCGCGUGAAGGAGAGAAGUGAACCAGAGAAACACACGUUGUGGUAUAUUACCUCGUA | 0.232
18 | GUCCUCUUUCACGUGCGCGUGAAGGAGAUAAGUGAACCAGAGAAACACACGUUGUGGUAUAUUACCUGGUA | 0.0932
19 | GUCCUCUUUCACGUGCGCGUGAAGGAGACAAGUGAACCAGAGAAACACACGUUGUGGUAUAUUACCUGGUA | 0.174
20 | GUCCUCUUUCACGUGCGCGUGAAAAAGAGAAGUGAACCAGAGAAACACACGUUGUGGUAUAUUACCUGGUA | 0.634
21 | GUCCUCUUUCACGUGCGCGUGAAAAAGAGAAGUGAACCAGAGAAACACACGUUGUGGUCUAUUACCUGGUA | 0.196
22 | GUCCUCUUUCACGUGCGCGUGAAGGAGAGAAGUGAACCAGAGAAACACACGUUGUGGUAUAUUACGUGGUA | 0.226
23 | GUCCUCUUUCACGUGCGCGUGAAUGAGAGAAGUGAACCAGAGAAACACACCUUGUGGUAUAUUACCUGGUA | 0.805
24 | GUCCUCUUUCACGUGCGCGUGAAUGAGAGAAGUGAACCAGAGAAACACAGGUUGUGGUAUAUUACCUGGUA | 0.341
25 | GUCCUCUUUCACGUGCGCGUGAAGGAGAGAAGUGAACCACAGAAACACACGUUGUGGUAUAUUACCUGGUA | 0.188
26 | GUCCUCUUUCACGUGCGCGUGAAGGAGAGAAGUGAACCAAAGAAACACACGUUGUGGUAUAUUACCUGGUA | 0.338

Row | Variant | self-cleavage
27 | GUCCUCUUUCACGUGCGCGUGAAUGAGAGAAGUGAACCAGAGAAUCACACGUUGUGGUAUAUUACCUGGUA | 0.159
28 | GUCCUCUUUCACGUGCGCGUGAAUGAGAGAAGUGAACAAGAGAAACACACGUUGUGGUAUAUUACCUGGUA | 0.154
29 | GUCCUCUUUCACGUGCGCGUGAAUGAGAGAAGUGAACCAGGGAAACACACGUUGUGGUAUAUUACCUGGUA | 0.71
30 | GUCCUCUUUCACGUGCGCGUGAAAAAGAGAAGUGAACCAGGGAAACACACGUUGUGGUAUAUUACCUGGUA | 0.494
31 | GUCCUCUUUCACGUGCGCGUGAAUGAGAGAAGUGAACCACAGAAACACACGUUGUGGUAUAUUACCUGGUA | 0.116
32 | GUCCUCUUUCACGUGCGCGUGAAUGAGAGAAGUGAACCAGAGUAACACACGUUGUGGUAUAUUACCUGGUA | 0.121
33 | GUCCUCUUUCACGUGCGCGUGAAUGAGAGGAGUGAACCAGAGAAACACACGUUGUGGUAUAUUACCUGGUA | 0.164
34 | GUCCUCUUUCACGUGCGCGUGAAUGAGAGAAGUGAACCAGAGAAACACACGUUGUGGUAUAUUACCUGGUA | 0.868
35 | GUCCUCUUUCACGUGCGCGUGAAGGAGAGAAGUGAACCAGAGAAACACACGUUGCGGUAUAUUACCUGGUA | 0.196
36 | GUCCUCUUUCACGUGCGCGUGAAGGAGAGAAGUGAACCAGAGAAACACACGUUGAGGUAUAUUACCUGGUA | 0.272
37 | GUCCUCUUUCACGUGCGCGUGAAGGAGAGAAGUGAACCAGAGAAACACACGUUGUGGUAUAUUACCUGAUA | 0.392
38 | GUCCUCUUUCACGUGCGCGUGAAGGAGAGAAGAGAACCAGAGAAACACACGUUGUGGUAUAUUACCUGGUA | 0.118
39 | GUCCUCUUUCACGUGCGCGUGAAGGAGAGAAGUGAACCAGAGAAACACACCUUGUGGUAUAUUACCUGGUA | 0.829
40 | GUCCUCUUUCACGUGCGCGUGAAUGAGAGAAGUGAACCAGAGAAACACACGAUGUGGUAUAUUACCUGGUA | 0.925
41 | GUCCUCUUUCACGUGCGCGUGAAUGAGAGAAGUGAACCAGAGAAACACACGGUGUGGUAUAUUACCUGGUA | 0.744
42 | GUCCUCUUUCACGUGCGCGUGAAUGAGAGAAGUGAACCCGAGAAACACACGUUGUGGUAUAUUACCUGGUA | 0.5
43 | GUCCUCUUUCACGUGCGCGUGAAGGAGAGAAGUGAACCAGAGAAACACACGUUGUGGUAUAUUACCAGGUA | 0.204
44 | GUCCUCUUUCACGUGCGCGUGAAAAAGAGUAGUGAACCAGAGAAACACACGUUGUGGUAUAUUACCUGGUA | 0.234
45 | GUCCUCUUUCACGUGCGCGUGAAAAAGAGGAGUGAACCAGAGAAACACACGUUGUGGUAUAUUACCUGGUA | 0.188
46 | GUCCUCUUUCACGUGCGCGUGAAGGAGAGAAGUGAACCAGAGAAACACACGAUGUGGUAUAUUACCUGGUA | 1.12
47 | GUCCUCUUUCACGUGCGCGUGAAUGAGAGAAGUGAACCAGAGAAACACACGUUGUGGUAUAGUACCUGGUA | 0.131
48 | GUCCUCUUUCACGUGCGCGUGAAUGAAAGAAGUGAACCAGAGAAACACACGUUGUGGUAUAUUACCUGGUA | 0.334
49 | GUCCUCUUUCACGUGCGCGUGAAAAAGAGAAGUGAUCCAGAGAAACACACGUUGUGGUAUAUUACCUGGUA | 0.363
50 | GUCCUCUUUCACGUGCGCGUGAAUAAGAGAAGUGAACCAGAGAAACACACGUUGUGGUAUAUUACCUGGUA | 0.219
51 | GUCCUCUUUCACGUGCGCGUGAAUCAGAGAAGUGAACCAGAGAAACACACGUUGUGGUAUAUUACCUGGUA | 0.385
52 | GUCCUCUUUCACGUGCGCGUGAAGGAGAGAAGUGAACCAGAGAAACACACGUUGUGGUAUAUUACCUGGAA | 0.746

Row | Variant | self-cleavage
53 | GUCCUCUUUCACGUGCGCGUGAAUGAGAGAAGUGAACCAGAGAAACACACGUUGUGGUAUAUUGCCUGGUA | 0.492
54 | GUCCUCUUUCACGUGCGCGUGAAUGAGAGAAGUGAGCCAGAGAAACACACGUUGUGGUAUAUUACCUGGUA | 0.943
55 | GUCCUCUUUCACGUGCGCGUGAAGGAGAGAAGUGAACCAGAAAAACACACGUUGUGGUAUAUUACCUGGUA | 0.111
56 | GUCCUCUUUCACGUGCGCGUGAAGGAGAGAAGUGAACCAGAUAAACACACGUUGUGGUAUAUUACCUGGUA | 0.289
57 | GUCCUCUUUCACGUGCGCGUGAAGGAGAGAAGUGAACCAGACAAACACACGUUGUGGUAUAUUACCUGGUA | 0.275
58 | GUCCUCUUUCACGUGCGCGUGAAUGAGCGAAGUGAACCAGAGAAACACACGUUGUGGUAUAUUACCUGGUA | 0.449
59 | GUCCUCUUUCACGUGCGCGUGAAUGAGAGAAGUGAACCAGAGAAACACACGUUGUCGUAUAUUACCUGGUA | 0.14
60 | GUCCUCUUUCACGUGCGCGUGAAUGAGAGAAGUGAACCAGAGAAACACACGUUGUGGUGUAUUACCUGGUA | 0.183
61 | GUCCUCUUUCACGUGCGCGUGAAGGAGAGAAGUGAACCAGAGAAACACACGUAGUGGUAUAUUACCUGGUA | 0.822
62 | GUCCUCUUUCACGUGCGCGUGAAUGAGAGAAGUGAACCAGAGAAACAUACGUUGUGGUAUAUUACCUGGUA | 0.252
63 | GUCCUCUUUCACGUGCGCGUGAAUGAGAGAAGUGAACCAGAGAAACACACGUUGUGGUAUAUUACCUGGUU | 0.783
64 | GUCCUCUUUCACGUGCGCGUGAAUGAGAGAAGUGAAACAGAGAAACACACGUUGUGGUAUAUUACCUGGUA | 0.304
65 | GUCCUCUUUCACGUGCGCGUGAAGGAGAGAAGUGAACCAGAGAAACACACGUUGUGGUACAUUACCUGGUA | 0.936
66 | GUCCUCUUUCACGUGCGCGUGAAUGAGAGAAGUGAACCAGAGAAACACACGUUGUGUUAUAUUACCUGGUA | 0.188
67 | GUCCUCUUUCACGUGCGCGUGAAGGAGAGAAGUGAACCAGAGAAACACACGUUGUGGUAUAUAACCUGGUA | 0.231
68 | GUCCUCUUUCACGUGCGCGUGAAGGACAGAAGUGAACCAGAGAAACACACGUUGUGGUAUAUUACCUGGUA | 0.171
69 | GUCCUCUUUCACGUGCGCGUGAAAAAGAGAAGUGAACCAGAGAAUCACACGUUGUGGUAUAUUACCUGGUA | 0.111
70 | GUCCUCUUUCACGUGCGCGUGAAUGAGAGACGUGAACCAGAGAAACACACGUUGUGGUAUAUUACCUGGUA | 0.163
71 | GUCCUCUUUCACGUGCGCGUGAAGGAGAGAAGUGAACCAGAGAAACACACGUUGUAGUAUAUUACCUGGUA | 0.187
72 | GUCCUCUUUCACGUGCGCGUGAAUGAGAGAAGUGAACCAGAGAAAAACACGUUGUGGUAUAUUACCUGGUA | 0.11
73 | GUCCUCUUUCACGUGCGCGUGAAAAAGAGAAGUGAACCAGAGAAACCCACGUUGUGGUAUAUUACCUGGUA | 0.107
74 | GUCCUCUUUCACGUGCGCGUGAAUGAGAGAAGUGAACCAGAGAAACACACGUUGUGGUAUAUUACCUGCUA | 0.271
75 | GUCCUCUUUCACGUGCGCGUGAAUGAGAGAAGCGAACCAGAGAAACACACGUUGUGGUAUAUUACCUGGUA | 0.0916
76 | GUCCUCUUUCACGUGCGCGUGAAUGAGAGAAGUGAACCAGAGAAACACACGUUGUGGUAUUUUACCUGGUA | 0.187
